{"source": "paper PMC2714593", "about": "“Insights into the role of Val45 and Gln182 of Escherichia coli MutY in DNA substrate binding and specificity”", "key": {"EcMutY Q182L": {"target": "T1, EcMutY Q182L (Escherichia coli, UniProt P17802 1-350, Q182L)", "T1 sequence": "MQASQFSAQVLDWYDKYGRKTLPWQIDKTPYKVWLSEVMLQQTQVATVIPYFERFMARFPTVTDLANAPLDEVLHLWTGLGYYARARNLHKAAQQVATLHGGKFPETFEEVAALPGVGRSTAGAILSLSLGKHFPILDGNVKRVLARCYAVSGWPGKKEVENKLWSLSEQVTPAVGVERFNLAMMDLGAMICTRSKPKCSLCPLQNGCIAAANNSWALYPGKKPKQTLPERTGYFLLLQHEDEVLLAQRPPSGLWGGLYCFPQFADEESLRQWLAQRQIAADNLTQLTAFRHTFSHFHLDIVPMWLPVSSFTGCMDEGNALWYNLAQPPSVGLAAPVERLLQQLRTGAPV", "assay": "EMSA; 20 mM Tris-HCl pH 7.6, 80 mM NaCl, 1 mM DTT, 1 mM EDTA, 2.9% glycerol, 20 ng poly dI/dC per 20 ul, 0.09 nM labeled DNA, 30 min at 30 C; 4% PAGE in TBE", "conditions": "protein: recombinant; label: 5'-32P on X strand; blunt; T/G mismatch at strand 1 position 22"}, "EcMutY V45A": {"target": "T2, EcMutY V45A (Escherichia coli, UniProt P17802 1-350, V45A)", "T2 sequence": "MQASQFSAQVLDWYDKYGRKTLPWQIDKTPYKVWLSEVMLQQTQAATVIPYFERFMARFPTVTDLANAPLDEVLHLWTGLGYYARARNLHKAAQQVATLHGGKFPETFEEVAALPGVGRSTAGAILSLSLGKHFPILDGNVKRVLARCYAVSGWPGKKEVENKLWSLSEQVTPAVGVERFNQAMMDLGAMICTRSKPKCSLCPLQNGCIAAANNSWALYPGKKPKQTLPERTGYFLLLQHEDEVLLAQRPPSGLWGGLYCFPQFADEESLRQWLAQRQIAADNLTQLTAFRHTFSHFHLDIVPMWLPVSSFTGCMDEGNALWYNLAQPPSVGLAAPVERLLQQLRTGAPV", "assay": "EMSA; 20 mM Tris-HCl pH 7.6, 80 mM NaCl, 1 mM DTT, 1 mM EDTA, 2.9% glycerol, 20 ng poly dI/dC per 20 ul, 0.09 nM labeled DNA, 30 min at 30 C; 4% PAGE in TBE", "conditions": "protein: recombinant; label: 5'-32P on X strand; blunt; T/G mismatch at strand 1 position 22"}}}
{"binder": "T/G 44-mer (dsDNA) DNA 1: AATTGGGCTCCTCGAGGAATTTGCCTTCTGCAGGCATGCCCCGG DNA 2: CCGGGGCATGCCTGCAGAAGGCGAATTCCTCGAGGAGCCCAATT", "values": [{"measurement": "Kd", "setting": "EcMutY Q182L", "value": "43 ± 14", "unit": "pM"}, {"measurement": "Kd", "setting": "EcMutY V45A", "value": "11 ± 4", "unit": "pM"}]}
